For data set [1] the following is noted: cited from earlier work.
Data set [2] is described as follows: Sensory evaluation of 400 ppm A95 + Brazzein in citric base. As to conditions: Brazzein 5 ppm to 20 ppm in 400 ppm of A95. The data set is classed as in vivo, human. An excerpt:
Example 7: Brazzein+Reb A95 (Taste Modifying Composition)
“A95” refers to a steviol glycoside blend comprising primarily reb D and reb M. Methods of obtaining A95 are provided in WO 2017/059414, incorporated herein by reference.

A short description of data set [3]: Sensory evaluation of 472 ppm RebM80 + Brazzein in citric base. As to conditions: Brazzein 1-15 ppm in 472 ppm of RebM80. Type of data set: in vivo, human. An excerpt: Example 6: Brazzein+Reb M (Taste Modifying Composition)
For data set [4] the following is noted: cited from earlier work. This is another data set of the same source.
For data set [5] the following is noted: cited from earlier work. This is another data set of the same source.

Here are results for 1 substance from patent US20220361544A1, “Compositions Containing Brazzein” (The Coca-Cola Company, priority 2019, published 2022).

As a reminder, the Solubility is how much of the substance goes into solution per volume.

Like-named read-outs stand apart in the source and are kept apart here.

“Brazzein: small, sweet-tasting protein from Pentadiplandra brazzeana Baillon; 53-amino acid minor form, SEQ ID NO: 1 (DKCKKVYENYPVSKCQLANQCNYDCKLDKHARSGECFYDEKRNLQCICDYCEY; listed as Pentadiplandra brazzeana)”: in data set [1], the Solubility is more than 50 mg/mL and the Water solubility is more than 50 mg/mL. In addition, the “Effect of Brazzein on taste of 400 ppm A95” value in data set [2] was “can improve the mouthfeel, block bitterness and lingering in 400 ppm of A95”. For the same substance, the “Effect of Brazzein on taste property of 472 ppm RebM80” value in data set [3] was “improves the taste property in 472 ppm of RebM80 such as, sour, less sweet, cover the bitterness and lingering. More mouthfeel, richness and fullbody”. Moreover, the “Taste similarity to sucrose” value in data set [4] (compared with thaumatin) was “more similar to sucrose than that of thaumatin”. The “Sweetness of minor form relative to major form” value in data set [4] (minor form (des-pGlu1-brazzein) vs major form (pGlu-brazzein)) is reported as “nearly twice the sweetness of the major form”. Besides, the “Sweet taste after incubation” value in data set [5] (80° C. for 4.5 h in the pH range of 2.5-8) is listed as “remains”. Also, in data set [5] (98° C. for 2 h), the “Sweet taste after incubation” value was “remains”.
